For experiment [1], the target named is mMH1_02TE, H1 hemagglutinin ectodomain (A/Hawaii/70/2019) with cleavable foldon and histidine tag (influenza A virus A/Hawaii/70/2019 (H1) | not stated). Nature of the experiment: SEC-MALS. Background: SEC sorts molecules by how far they enter the pores of the column.
For experiment [2], the target named is mMH3_02TE, H3 hemagglutinin ectodomain (A/Hong Kong/45/2019) with cleavable foldon and histidine tag (influenza A virus A/Hong Kong/45/2019 (H3) | not stated). In words: SEC-MALS.

Usually stoichiometry N stands for the number of molecules, sites or subunits per partner or assembly. “mMH1_02TE, H1 hemagglutinin ectodomain (A/Hawaii/70/2019) with cleavable foldon and histidine tag (domain or fragment)”: the stoichiometry N in experiment [1] was determined as 3. Turning to “mMH3_02TE, H3 hemagglutinin ectodomain (A/Hong Kong/45/2019) with cleavable foldon and histidine tag (domain or fragment)”, the stoichiometry N in experiment [2] was determined as 3.

These data come from publication PMC8473191.
